From publication PMC6564688 (Nature structural & molecular biology, 2019) come the findings set out here.

The target of series [1] is chicken Otop3 (chicken). Kind of series: cryo-EM structure.
Series [2] deals with the molecule itself. Kind of series: cryo-EM structure.

In the case of chicken Otop3 (natural protein), the stoichiometry N in series [1] stood at 2.

B1: zebrafish Otop1 (natural protein, UniProt Q7ZWK8 1-586, looked up)
chain: MVEHGGTDSMWLNKYNPAAASSASSSSSSDAENKLFSRLKVSLTKKYPQKNAELLSAQYGTNLLLLGVSVMLALAAQSGPVKEEHLLSFITVLMLVQLVWMLCYMIRRERERSPVPERDAHAGASWIRGGLTMLALLSLIMDAFRIGYFVGYHSCISAALGVYPIVHALHTISQVHFLWFHIKDVIKKYETFERFGVIHAVFTNLLLWCNGVMSETEHFMHNHRRRLIEMGYANLSTVDVQPHCNCTTSVCSMFSTSLYYLYPFNIEYHIFVSAMLFVMWKNIGRTLDRHSNRKRRSTGSTGLLLGPLGGLVALASSVSVLVVYLIHLEKTEEMHEAAVSMFYYYGVAMMACMCVGSGTGLLVYRMENRPMDTGSNPARTLDTELLLASSLGSWLMSWCSVVASVAEAGQKSPSFSWTSLTYSLLLVLEKCIQNLFIVESLYRRHSEEEEDAAAPQVFSVAVPPYDGILNHGYEAHDKHREAEPAAGSHALSRKQPDAPLPAGQRLDVTPGRKRQILKNICMFLFMCNISLWILPAFGCRPQYDNPLENETFGTSVWTTVLNVAIPLNLFYRMHSVASLFEVFRKV
Consider B1, for which the “stoichiometry N” value in series [2] is 2.

As a reminder, the stoichiometry N is the number of molecules, sites or subunits per partner or assembly.
